The source of these data is publication PMC3762189, “Mechanism of synergistic activation of Arp2/3 complex by cortactin and N-WASP” (eLife, 2013).

In the experiment the target is G-actin (rabbit muscle actin monomers) (rabbit, UniProt P68135 1-377). Nature of the experiment: fluorescence polarisation; competition: anisotropy of 50 nM Rhodamine-VCA with 150 nM G-actin and increasing VCA or VCA mutants; 10 mM Hepes pH 7.0, 50 mM KCl, 1 mM MgCl2, 1 mM EGTA, 1 mM DTT, 0.2 mM ATP, 350 nM Latrunculin B; KD is the mean of at least three fits. The note with it: both partners purified. A general note: In fluorescence polarisation assays a small probe gives low polarisation when free and higher when bound to something large.

B1: N-WASP-VCA (domain or fragment)
chain: PVSCSGRDALLDQIRQGIQLKSVTDAPESTPPAPAPTSGIVGALMEVMQKRSKAIHSSDEDEDEDDDEDFEDDDEWED
notes: N-WASP, VCA region (verprolin homology, central, acidic); The text implies a GST tag with a TEV site on the VCA constructs; also called monomeric VCA; WT; source: purified as described previously (Hetrick et al., 2013)
In general, Kd refers to the concentration at which binding is half-saturated. Low readings indicate higher affinity, high ones lower affinity. With B1, the dissociation constant (Kd) was determined as 560 ± 30 nM.
